Test results as given in the supplement of paper PMC10567573.

B1: CLK3 (parent)
chain: FGEDYYGPSRSRHRRRSRERGPYR

Variants of: B1
Test: protein stability index of a GFP-peptide fusion (GPS, HEK-293T) (PSI 1-6); higher = more stable
Details: c terminus: a fixed tail appended
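Further: lentivirally expressed fusions sorted by FACS into six bins by GFP to DsRed ratio, PSI derived from sequencing read proportions per bin multiplied by bin number.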

Protein stability index: each site, then its substitutions
S17: K 2.81, Q 2.89, L 2.43, N 3.93, I 3.18, G 3.1, H 3.52, A 2.85, Y 3.4, M 3.93, W 4.02, C 2.83, E 2.01, R 4.26, T 3.45, V 2.86, P 2.6, D 2.58, F 3.51
S9: T 2.58, E 2.73, P 2.56, Y 2.56, H 2.33, L 2.55, V 2.38, A 2.39, W 2.17, R 3, N 2.82, D 2.84, G 3.16, C 2.35, M 1.69, Q 2.63, I 2.47, F 2.21, K 2.74
G2: R 4.89, W 4.3, T 2.65, F 3.98, D 5.06, L 3.38, H 2.5, M 3.85, E 4.89, V 1.03, S 2.96, K 4.75, C 2.52, N 4.4, Y 4.01, I 1.99, A 2.87, Q 2.49, P 3.52
G7: W 2.06, H 2.07, R 3.07, A 3.32, N 2.06, I 4.23, L 2.96, Y 2.78, D 3.27, Q 2.82, V 4.13, E 4.32, K 3.71, C 2.95, M 3.06, S 3.25, T 3.53
R15: G 1.98, K 3.27, M 3.55, I 2.43, Q 1.98, V 2.1, H 2.18, C 1.57, A 2.18, L 2.23, W 2.11, S 2.04, Y 2.69, P 2.54, F 1.85, T 1.91, N 2.47, E 1.95, D 2.34
Y5: K 5.11, N 4.51, P 4.3, S 3.8, V 4.36, A 3.53, E 4.86, C 4.48, M 3.5, F 3.11, I 4.44, Q 4.7, T 5.24, D 4.95, G 4, H 4.64, L 4.47, R 5.21
S11: N 2.21, E 2.02, T 2.86, P 3.1, C 2.95, G 2.58, R 2.53, D 2.57, V 2.35, F 2.76, H 3.12, I 2.56, W 2.3, A 2.97, L 1.92, Y 2.99, Q 2.65, K 3.18, M 2.13
R14: G 2.62, M 2.13, T 2.42, I 2.41, Q 2.25, W 3.15, L 2.27, S 2.19, H 2.44, E 2.66, D 2.31, N 2.89, V 2.22, K 3.03, Y 2.02, C 1.85, F 2.83, A 1.88, P 2.08
E19: A 3.59
E3: Q 4.38, I 4.08, M 3.83, Y 4.08, N 3.63, T 3.75, C 3.26, P 3.41, A 3.9, G 2.27, K 3.96, S 1.73, H 4.21, L 4.43, V 4.08, D 2.86, F 4.87, R 3.46, W 3.63
F1: L 4.08, D 5.21, W 4.57, Y 3.36, R 5.35, P 4.87, K 4.99, Q 5.13, G 4.79, E 5.1, S 5.1, T 5.16, H 4.65, C 4.54, A 4.83, V 5.33, M 4.92, N 4.44, I 4.57
R18: I 2.23, W 3.29, M 2.89, T 2.32, Y 2.36, C 2.21, K 2.46, A 2.06, G 2.54, P 2.37, L 2.22, V 2.29, S 1.83, F 2.73, Q 2.45, N 1.96, E 1.8
R12: E 2.58, H 2.51, I 1.95, T 2.27, Q 2.31, P 2.39, M 2.03, G 2.16, F 2.18, S 2.1, A 2.13, W 2.44, K 3.19, D 1.86, N 2.52, V 2.11, Y 2.58, L 1.48
R16: F 1.64, I 1.96, P 1.63, A 1.87, C 1.97, T 2.2, L 1.62, S 1.77, M 1.9, G 2.52, H 2.35, W 2.33, N 2.26, V 2.23, E 2.86, Q 2.97, D 2.15, K 2.46
Y6: T 4.27, A 4.61, M 4.17, L 3.98, P 4.78, Q 5.36, N 4.47, C 4.75, F 2.4, E 4.84, S 4.96, D 4.59, R 4.67, K 5.1, V 4.02, I 4.38, H 4.07, W 2.52, G 5.15
H13: P 2.96, D 2.16, K 3.53, G 2.46, L 2.18, Q 2.48, I 2.78, V 2.16, F 2.64, T 2.7, S 2.52, E 2.21, Y 2.52, W 1.93, N 2.55, A 2.16, M 3.25, C 2.29
D4: H 3.52, K 3.44, M 2.29, I 3.86, C 2.81, T 3.38, V 3.58, A 3.2, R 3.34, Q 2.55, F 3.2, L 2.5, Y 3.63, P 3.59, E 3.79, N 2.1, W 2.16, G 1.9, S 2.21
R10: Y 2.12, F 2.31, T 2.41, D 2.75, M 3.16, V 2.52, A 2.9, I 2.64, P 2.82, H 3.62, K 2.58, S 3, E 3.36, L 3.03, C 2.45, W 2.85, N 2.63, Q 2.7, G 3.15
P8: K 1.58, E 2.56, L 1.51, C 2.48, Q 1.59, G 2.3, T 2.61, D 1.92, W 1.53, N 2.32, H 1.61, I 2.19, F 1.74, R 1.44, Y 2.99, A 1.71, S 2.38, V 1.42
